The target in this assay is growth hormone secretagogue receptor (GHSR) (mouse (endogenous in pancreatic delta cells)) (UniProt Q99P50).
Sequence of UniProt Q99P50 (Q99P50 whole entry, stated change not applied): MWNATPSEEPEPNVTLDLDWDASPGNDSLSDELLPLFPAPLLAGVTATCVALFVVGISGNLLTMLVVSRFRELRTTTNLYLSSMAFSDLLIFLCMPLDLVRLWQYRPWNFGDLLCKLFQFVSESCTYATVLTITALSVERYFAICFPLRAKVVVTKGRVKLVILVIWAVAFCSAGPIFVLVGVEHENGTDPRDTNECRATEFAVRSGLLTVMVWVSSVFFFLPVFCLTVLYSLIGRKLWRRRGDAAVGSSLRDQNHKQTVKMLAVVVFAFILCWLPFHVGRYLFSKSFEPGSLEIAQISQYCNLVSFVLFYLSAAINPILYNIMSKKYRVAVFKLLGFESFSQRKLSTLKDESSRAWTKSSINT

As to Mouse ghrelin (peptide), the SST release from perfused mouse pancreas at 12 mmol/l glucose, 1 and 100 nmol/l ghrelin, fold increase amounted to 2.7 fold.

These data come from publication PMC5016554.
